Reference: patent US20230406885A1, “CYCLIC PEPTIDES FOR TRAPPING INTERLEUKIN-1 BETA” (MERCK SHARP & DOHME LLC, priority 2022, published 2023)
*1 amine or outer side, *2 acyl side, *3 side chain or, on linkers, in order; H or OH if unused. [ ]: non-standard residue; d: D form. 3AzaPhe4AcPip = (S)-3-(6-(4-acetylpiperazin-1-yl)pyridin-3-yl)-2-aminopropanoic acid, CC(=O)N1CCN(c2ccc(C[C@H](N[*:1])C(=O)[*:2])cn2)CC1; Trp(4-Cl)(βS-Me) = C[C@@H](c1c[nH]c2cccc(Cl)c12)[C@H](N)C(=O)O; Pro(trans-4-NH2) = O=C([C@@H]1C[C@@H](N[*:3])CN1[*:1])[*:2]; Trp(βS-Me,4-F) = C[C@@H](c1c[nH]c2cccc(F)c12)[C@H](N)C(=O)O; Bip(4'-COOH) = N[C@@H](Cc1ccc(-c2ccc(C(=O)O)cc2)cc1)C(=O)O; hQ = L-homoglutamine, NC(=O)CCC[C@H](N[*:1])C(=O)[*:2]; Phe(4-COOH) = N[C@@H](Cc1ccc(C(=O)O)cc1)C(=O)O; h3Pal(5-CN) = N#Cc1cncc(CC[C@H](N)C(=O)O)c1; Ala(4-THP) = N[C@@H](CC1CCOCC1)C(=O)O; hTyr = N[C@@H](CCc1ccc(O)cc1)C(=O)O; h4Pal = N[C@@H](CCc1ccncc1)C(=O)O; 4Pal = N[C@@H](Cc1ccncc1)C(=O)O; hLys = NCCCCC[C@H](N)C(=O)O; dDab = NCC[C@@H](N)C(=O)O; dNMeA = CN[C@H](C)C(=O)O

B1: SEQ ID NO: 63 (peptide)
peptide: cyclo([Bip(4'-COOH)]W[Phe(4-COOH)]G[Pro(trans-4-NH2)][Trp(βS-Me,4-F)]D[dNMeA]G[Bip(4'-COOH)][hQ]L[dA][hTyr])
SMILES: CC(C)C[C@@H]1NC(=O)[C@H](CCCC(N)=O)NC(=O)[C@H](Cc2ccc(-c3ccc(C(=O)O)cc3)cc2)NC(=O)CNC(=O)[C@@H](C)N(C)C(=O)[C@H](CC(=O)O)NC(=O)[C@H]([C@@H](C)c2c[nH]c3cccc(F)c23)NC(=O)[C@@H]2C[C@@H](N)CN2C(=O)CNC(=O)[C@H](Cc2ccc(C(=O)O)cc2)NC(=O)[C@H](Cc2c[nH]c3ccccc23)NC(=O)[C@H](Cc2ccc(-c3ccc(C(=O)O)cc3)cc2)NC(=O)[C@H](CCc2ccc(O)cc2)NC(=O)[C@@H](C)NC1=O
B2: SEQ ID NO: 60 (peptide)
peptide: cyclo([Bip(4'-COOH)]W[Phe(4-COOH)]G[Pro(trans-4-NH2)][Trp(βS-Me,4-F)]D[dNMeA]G[Bip(4'-COOH)]FL[dA][hTyr])
SMILES: CC(C)C[C@@H]1NC(=O)[C@H](Cc2ccccc2)NC(=O)[C@H](Cc2ccc(-c3ccc(C(=O)O)cc3)cc2)NC(=O)CNC(=O)[C@@H](C)N(C)C(=O)[C@H](CC(=O)O)NC(=O)[C@H]([C@@H](C)c2c[nH]c3cccc(F)c23)NC(=O)[C@@H]2C[C@@H](N)CN2C(=O)CNC(=O)[C@H](Cc2ccc(C(=O)O)cc2)NC(=O)[C@H](Cc2c[nH]c3ccccc23)NC(=O)[C@H](Cc2ccc(-c3ccc(C(=O)O)cc3)cc2)NC(=O)[C@H](CCc2ccc(O)cc2)NC(=O)[C@@H](C)NC1=O
B3: SEQ ID NO: 57 (peptide)
peptide: cyclo([Bip(4'-COOH)]W[Phe(4-COOH)]G[Pro(trans-4-NH2)][Trp(4-Cl)(βS-Me)]Q[dNMeA]G[Bip(4'-COOH)]WG[dDab][hTyr])
SMILES: C[C@@H]1C(=O)NCC(=O)N[C@@H](Cc2ccc(-c3ccc(C(=O)O)cc3)cc2)C(=O)N[C@@H](Cc2c[nH]c3ccccc23)C(=O)NCC(=O)N[C@H](CCN)C(=O)N[C@@H](CCc2ccc(O)cc2)C(=O)N[C@@H](Cc2ccc(-c3ccc(C(=O)O)cc3)cc2)C(=O)N[C@@H](Cc2c[nH]c3ccccc23)C(=O)N[C@@H](Cc2ccc(C(=O)O)cc2)C(=O)NCC(=O)N2C[C@H](N)C[C@H]2C(=O)N[C@@H]([C@@H](C)c2c[nH]c3cccc(Cl)c23)C(=O)N[C@@H](CCC(N)=O)C(=O)N1C
B4: SEQ ID NO: 59 (peptide)
peptide: cyclo([Bip(4'-COOH)]W[Phe(4-COOH)]G[Pro(trans-4-NH2)][Trp(βS-Me,4-F)]D[dNMeA]G[Bip(4'-COOH)][4Pal]L[dA][hTyr])
SMILES: CC(C)C[C@@H]1NC(=O)[C@H](Cc2ccncc2)NC(=O)[C@H](Cc2ccc(-c3ccc(C(=O)O)cc3)cc2)NC(=O)CNC(=O)[C@@H](C)N(C)C(=O)[C@H](CC(=O)O)NC(=O)[C@H]([C@@H](C)c2c[nH]c3cccc(F)c23)NC(=O)[C@@H]2C[C@@H](N)CN2C(=O)CNC(=O)[C@H](Cc2ccc(C(=O)O)cc2)NC(=O)[C@H](Cc2c[nH]c3ccccc23)NC(=O)[C@H](Cc2ccc(-c3ccc(C(=O)O)cc3)cc2)NC(=O)[C@H](CCc2ccc(O)cc2)NC(=O)[C@@H](C)NC1=O
B5: SEQ ID NO: 6 (peptide)
peptide: cyclo([3AzaPhe4AcPip]W[Phe(4-COOH)]G[Pro(trans-4-NH2)][Trp(βS-Me,4-F)]D[dNMeA]G[Bip(4'-COOH)]KL[dA][hTyr])
SMILES: CC(=O)N1CCN(c2ccc(C[C@@H]3NC(=O)[C@H](CCc4ccc(O)cc4)NC(=O)[C@@H](C)NC(=O)[C@H](CC(C)C)NC(=O)[C@H](CCCCN)NC(=O)[C@H](Cc4ccc(-c5ccc(C(=O)O)cc5)cc4)NC(=O)CNC(=O)[C@@H](C)N(C)C(=O)[C@H](CC(=O)O)NC(=O)[C@H]([C@@H](C)c4c[nH]c5cccc(F)c45)NC(=O)[C@@H]4C[C@@H](N)CN4C(=O)CNC(=O)[C@H](Cc4ccc(C(=O)O)cc4)NC(=O)[C@H](Cc4c[nH]c5ccccc45)NC3=O)cn2)CC1
B6: SEQ ID NO: 58 (peptide)
peptide: cyclo([Bip(4'-COOH)]W[Phe(4-COOH)]G[Pro(trans-4-NH2)][Trp(βS-Me,4-F)]A[dNMeA]G[Bip(4'-COOH)]KL[dA][hTyr])
SMILES: CC(C)C[C@@H]1NC(=O)[C@H](CCCCN)NC(=O)[C@H](Cc2ccc(-c3ccc(C(=O)O)cc3)cc2)NC(=O)CNC(=O)[C@@H](C)N(C)C(=O)[C@H](C)NC(=O)[C@H]([C@@H](C)c2c[nH]c3cccc(F)c23)NC(=O)[C@@H]2C[C@@H](N)CN2C(=O)CNC(=O)[C@H](Cc2ccc(C(=O)O)cc2)NC(=O)[C@H](Cc2c[nH]c3ccccc23)NC(=O)[C@H](Cc2ccc(-c3ccc(C(=O)O)cc3)cc2)NC(=O)[C@H](CCc2ccc(O)cc2)NC(=O)[C@@H](C)NC1=O
B7: SEQ ID NO: 56 (peptide)
peptide: cyclo([Bip(4'-COOH)]W[Phe(4-COOH)]G[Pro(trans-4-NH2)][Trp(4-Cl)(βS-Me)]N[dNMeA]G[Bip(4'-COOH)]WG[dDab][hTyr])
SMILES: C[C@@H]1C(=O)NCC(=O)N[C@@H](Cc2ccc(-c3ccc(C(=O)O)cc3)cc2)C(=O)N[C@@H](Cc2c[nH]c3ccccc23)C(=O)NCC(=O)N[C@H](CCN)C(=O)N[C@@H](CCc2ccc(O)cc2)C(=O)N[C@@H](Cc2ccc(-c3ccc(C(=O)O)cc3)cc2)C(=O)N[C@@H](Cc2c[nH]c3ccccc23)C(=O)N[C@@H](Cc2ccc(C(=O)O)cc2)C(=O)NCC(=O)N2C[C@H](N)C[C@H]2C(=O)N[C@@H]([C@@H](C)c2c[nH]c3cccc(Cl)c23)C(=O)N[C@@H](CC(N)=O)C(=O)N1C
B8: SEQ ID NO: 65 (peptide)
peptide: cyclo([Bip(4'-COOH)]W[Phe(4-COOH)]G[Pro(trans-4-NH2)][Trp(βS-Me,4-F)]D[dNMeA]G[Bip(4'-COOH)]K[Ala(4-THP)][dA][hTyr])
SMILES: C[C@@H]1C(=O)NCC(=O)N[C@@H](Cc2ccc(-c3ccc(C(=O)O)cc3)cc2)C(=O)N[C@@H](CCCCN)C(=O)N[C@@H](CC2CCOCC2)C(=O)N[C@H](C)C(=O)N[C@@H](CCc2ccc(O)cc2)C(=O)N[C@@H](Cc2ccc(-c3ccc(C(=O)O)cc3)cc2)C(=O)N[C@@H](Cc2c[nH]c3ccccc23)C(=O)N[C@@H](Cc2ccc(C(=O)O)cc2)C(=O)NCC(=O)N2C[C@H](N)C[C@H]2C(=O)N[C@@H]([C@@H](C)c2c[nH]c3cccc(F)c23)C(=O)N[C@@H](CC(=O)O)C(=O)N1C
B9: SEQ ID NO: 66 (peptide)
peptide: cyclo([Bip(4'-COOH)]W[Phe(4-COOH)]G[Pro(trans-4-NH2)][Trp(βS-Me,4-F)]D[dNMeA]G[Bip(4'-COOH)]KL[dA][h3Pal(5-CN)])
SMILES: CC(C)C[C@@H]1NC(=O)[C@H](CCCCN)NC(=O)[C@H](Cc2ccc(-c3ccc(C(=O)O)cc3)cc2)NC(=O)CNC(=O)[C@@H](C)N(C)C(=O)[C@H](CC(=O)O)NC(=O)[C@H]([C@@H](C)c2c[nH]c3cccc(F)c23)NC(=O)[C@@H]2C[C@@H](N)CN2C(=O)CNC(=O)[C@H](Cc2ccc(C(=O)O)cc2)NC(=O)[C@H](Cc2c[nH]c3ccccc23)NC(=O)[C@H](Cc2ccc(-c3ccc(C(=O)O)cc3)cc2)NC(=O)[C@H](CCc2cncc(C#N)c2)NC(=O)[C@@H](C)NC1=O
B10: SEQ ID NO: 61 (peptide)
peptide: cyclo([Bip(4'-COOH)]W[Phe(4-COOH)]G[Pro(trans-4-NH2)][Trp(βS-Me,4-F)]D[dNMeA]G[Bip(4'-COOH)][h4Pal]L[dA][hTyr])
SMILES: CC(C)C[C@@H]1NC(=O)[C@H](CCc2ccncc2)NC(=O)[C@H](Cc2ccc(-c3ccc(C(=O)O)cc3)cc2)NC(=O)CNC(=O)[C@@H](C)N(C)C(=O)[C@H](CC(=O)O)NC(=O)[C@H]([C@@H](C)c2c[nH]c3cccc(F)c23)NC(=O)[C@@H]2C[C@@H](N)CN2C(=O)CNC(=O)[C@H](Cc2ccc(C(=O)O)cc2)NC(=O)[C@H](Cc2c[nH]c3ccccc23)NC(=O)[C@H](Cc2ccc(-c3ccc(C(=O)O)cc3)cc2)NC(=O)[C@H](CCc2ccc(O)cc2)NC(=O)[C@@H](C)NC1=O
B11: SEQ ID NO: 64 (peptide)
peptide: cyclo([Bip(4'-COOH)]W[Phe(4-COOH)]G[Pro(trans-4-NH2)][Trp(βS-Me,4-F)]D[dNMeA]G[Bip(4'-COOH)]K[Ala(4-THP)][dA][h3Pal(5-CN)])
SMILES: C[C@@H]1C(=O)NCC(=O)N[C@@H](Cc2ccc(-c3ccc(C(=O)O)cc3)cc2)C(=O)N[C@@H](CCCCN)C(=O)N[C@@H](CC2CCOCC2)C(=O)N[C@H](C)C(=O)N[C@@H](CCc2cncc(C#N)c2)C(=O)N[C@@H](Cc2ccc(-c3ccc(C(=O)O)cc3)cc2)C(=O)N[C@@H](Cc2c[nH]c3ccccc23)C(=O)N[C@@H](Cc2ccc(C(=O)O)cc2)C(=O)NCC(=O)N2C[C@H](N)C[C@H]2C(=O)N[C@@H]([C@@H](C)c2c[nH]c3cccc(F)c23)C(=O)N[C@@H](CC(=O)O)C(=O)N1C
B12: SEQ ID NO: 62 (peptide)
peptide: cyclo([Bip(4'-COOH)]W[Phe(4-COOH)]G[Pro(trans-4-NH2)][Trp(βS-Me,4-F)]D[dNMeA]G[Bip(4'-COOH)][hLys]L[dA][hTyr])
SMILES: CC(C)C[C@@H]1NC(=O)[C@H](CCCCCN)NC(=O)[C@H](Cc2ccc(-c3ccc(C(=O)O)cc3)cc2)NC(=O)CNC(=O)[C@@H](C)N(C)C(=O)[C@H](CC(=O)O)NC(=O)[C@H]([C@@H](C)c2c[nH]c3cccc(F)c23)NC(=O)[C@@H]2C[C@@H](N)CN2C(=O)CNC(=O)[C@H](Cc2ccc(C(=O)O)cc2)NC(=O)[C@H](Cc2c[nH]c3ccccc23)NC(=O)[C@H](Cc2ccc(-c3ccc(C(=O)O)cc3)cc2)NC(=O)[C@H](CCc2ccc(O)cc2)NC(=O)[C@@H](C)NC1=O

Biological target: Recombinant human IL-1β (BioLegend 579404) (human, UniProt P01584 117-269)
Experiment: cell-based or functional assay

| MRC5 IC50 | Binder |
| --- | --- |
| 0.063 nM | B1 |
| 0.0689 nM | B2 |
| 0.0873 nM | B3 |
| 0.0362 nM | B4 |
| 0.0666 nM | B5 |
| 0.247 nM | B6 |
| 0.0207 nM | B7 |
| 0.0158 nM | B8 |
| 0.0299 nM | B9 |
| 0.312 nM | B10 |
| 0.0182 nM | B11 |
| 0.283 nM | B12 |
